PMC11180174 (2024)

B1: 7F3 (antibody, V domains shown)
VH: EVQLVESGGGLVKPGRSLRLSCTASGFTFGDYAMSWFRQAPGKGLEWVGFIRSKAYGGTTEYAASVKGRFTISRDDSKSIAYLQMNSLKTEDTAVYYCTRDRYARYDILTGLSPAGADYFYYAMDVWGQGTTVTVSS
VL: EIVLTQSPATLSLSPGERATLSCRASQSVSSYLAWYQQKPGQAPRLLIYDASNRATGIPARFSGSGSGTDFTLTISSLEPEDFAVYYCQQRSNWPQYTFGQGTKLEIK
B2: LY-CoV1404 (antibody, V domains shown)
VH: QITLKESGPTLVKPTQTLTLTCTFSGFSLSISGVGVGWLRQPPGKALEWLALIYWDDDKRYSPSLKSRLTISKDTSKNQVVLKMTNIDPVDTATYYCAHHSISTIFDHWGQGTLVTVSS
VL: QSALTQPASVSGSPGQSITISCTATSSDVGDYNYVSWYQQHPGKAPKLMIFEVSDRPSGISNRFSGSKSGNTASLTISGLQAEDEADYYCSSYTTSSAVFGGGTKLTVL

Target: SARS-CoV-2 (Wuhan-Hu-1 strain) wild-type spike RBD with C-terminal 8xHis (SARS-CoV-2, UniProt P0DTC2 319-541)
Assay: BLI

Binder | Kd [pM]
B1 | < 10
B2 | < 10
